From doi:10.1101/2025.10.08.681084

Target: recombinant Nrf2-6×his (human) (UniProt Q16236)
Experiment: pull-down

Chain of UniProt Q16236 (Q16236 whole entry): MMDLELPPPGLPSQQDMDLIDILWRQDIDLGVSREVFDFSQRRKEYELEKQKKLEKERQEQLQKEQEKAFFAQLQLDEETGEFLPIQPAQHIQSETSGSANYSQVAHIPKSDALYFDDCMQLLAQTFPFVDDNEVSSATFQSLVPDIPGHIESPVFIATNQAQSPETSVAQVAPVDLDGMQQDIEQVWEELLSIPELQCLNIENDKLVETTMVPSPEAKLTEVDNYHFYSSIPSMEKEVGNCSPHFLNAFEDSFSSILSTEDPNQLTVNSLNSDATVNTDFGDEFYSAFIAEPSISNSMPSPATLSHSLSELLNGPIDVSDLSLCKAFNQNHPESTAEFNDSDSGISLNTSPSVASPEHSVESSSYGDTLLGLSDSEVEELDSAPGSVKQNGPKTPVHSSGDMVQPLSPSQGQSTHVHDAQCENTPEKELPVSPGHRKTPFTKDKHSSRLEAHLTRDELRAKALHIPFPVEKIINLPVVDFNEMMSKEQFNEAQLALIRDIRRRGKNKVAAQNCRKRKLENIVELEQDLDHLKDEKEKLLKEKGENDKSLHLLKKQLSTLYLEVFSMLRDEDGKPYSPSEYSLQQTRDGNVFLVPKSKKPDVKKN

With “recombinant K13 (TrK13-WT) (domain or fragment)” the percent reduction of binding of heme-bound TrK13-WT against heme-free TrK13-WT was 26%.
